In data set [1] the target is T1, matriptase (Homo sapiens, UniProt Q9Y5Y6).
T1 construct: from tissue; host or cells: human milk
T1 sequence (Q9Y5Y6 615-855 limits assumed): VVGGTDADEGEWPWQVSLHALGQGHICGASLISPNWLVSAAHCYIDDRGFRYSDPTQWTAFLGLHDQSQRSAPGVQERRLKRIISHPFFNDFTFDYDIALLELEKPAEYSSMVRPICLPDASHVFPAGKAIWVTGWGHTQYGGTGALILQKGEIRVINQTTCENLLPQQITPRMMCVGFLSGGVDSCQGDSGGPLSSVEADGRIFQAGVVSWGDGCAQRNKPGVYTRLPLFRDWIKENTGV
T1 sequence (Q9Y5Y6 190-614 partner limits assumed): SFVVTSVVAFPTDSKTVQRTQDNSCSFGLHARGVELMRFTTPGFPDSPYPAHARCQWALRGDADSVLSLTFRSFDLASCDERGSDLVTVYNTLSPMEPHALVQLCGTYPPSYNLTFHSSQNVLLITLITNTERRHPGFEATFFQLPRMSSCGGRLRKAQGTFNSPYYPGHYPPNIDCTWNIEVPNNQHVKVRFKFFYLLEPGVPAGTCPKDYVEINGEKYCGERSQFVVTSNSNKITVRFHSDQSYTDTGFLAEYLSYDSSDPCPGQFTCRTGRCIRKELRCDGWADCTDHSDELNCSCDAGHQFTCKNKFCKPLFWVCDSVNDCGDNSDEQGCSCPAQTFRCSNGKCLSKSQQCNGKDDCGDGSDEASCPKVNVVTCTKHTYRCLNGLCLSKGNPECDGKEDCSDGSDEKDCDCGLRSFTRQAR
The data set is described as follows: Cleavage rate assay with fluorescent substrate BOC-Gln-Ala-Arg-AMC after matriptase/HAI-1 complex formation. As to conditions: pH 8.5. The data set is classed as biochemical. The procedure: (§1) Matriptase and HAI-1 were isolated from human milk by anti-matriptase mAb 21-9 immunoaffinity chromatography, as described in Example 1, and were maintained in an uncomplexed status in elution buffer, 0.1 M glycine, pH 2.4. This preparation was brought to pH 8.5, incubated at 37° C. for 0, 5, 30 and 60 min., and subjected to immunoblotting using anti-matriptase mAb 21-9 (panel A), gelatin zymography (panel B), and to a cleavage rate assay using the synthetic, fluorescent substrate, BOC—Gin—Ala—Agr-7-amido 4-methylcoumarin (panel C). […] A milk-derived, matriptase-related 110-kDa protease (as indicated in panel A), which was not a complex of matriptase and HAI-1, and whose migration on SDS gel was reduced after boiling (see Example 1).
Proteolytic activity of matriptase determined by cleavage of trypsin substrate, BOC—Gln—Ala—Arg—AMC: A variety of synthetic, fluorescent protease substrates with arginine or lysine as P1 sites can be cleaved by matriptase, as described in Example 2. Among these substrates, t-butyloxycarbonyl (BOC)—Gln—Ala—Arg-7-amino-4-methylcoumarin (Sigma; St. Louis, Mo.) is likely to be the best one. Using this substrate, matriptase was assayed in 20 mM Tris buffer pH 8.5 at 25° C. in a total volume of 200 μl. The final substrate concentration was 0.1 mM. The rate of cleavage was determined with a fluorescence spectrophotometer (Hitachi, F-4500). […]

Data set [2] has as its target T1, matriptase. As to the kind of experiment: Gelatin zymography of matriptase/HAI-1 preparation. It is filed as biochemical. Here is the method:
as §1
Gelatin zymography: Gelatin zymography was carried out as previously described with some modifications (Brown et al., Biochem J. 101: 214-228 (1966)). Gelatin (1 mg/ml), as a substrate, was copolymerized with regular SDS-polyacrylamide gel. Electrophoresis was performed at a constant current of 15 mA. The gelatin gels were washed 3 times with PBS containing 2% Triton X-100 and incubated in PBS at 37° C. overnight.
Inhibition of matriptase activity by the interaction with HAI-1: HAI-1, a protein containing contains two protease inhibitory domains (Kunitz domains), was initially identified as a binding protein of matriptase. […]

Data set [3] concerns the target T2, 40-kDa fragment of hepatocyte growth factor activator inhibitor-1 (HAI-1).
T2 chain: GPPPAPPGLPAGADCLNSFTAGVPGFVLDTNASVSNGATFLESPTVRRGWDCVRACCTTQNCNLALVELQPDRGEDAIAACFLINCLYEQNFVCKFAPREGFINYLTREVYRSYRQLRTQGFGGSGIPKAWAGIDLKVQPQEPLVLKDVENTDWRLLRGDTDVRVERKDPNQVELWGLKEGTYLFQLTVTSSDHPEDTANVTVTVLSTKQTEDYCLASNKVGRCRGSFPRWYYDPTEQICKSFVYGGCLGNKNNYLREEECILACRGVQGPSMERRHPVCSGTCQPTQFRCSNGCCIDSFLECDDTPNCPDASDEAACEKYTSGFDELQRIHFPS

Data set [4] deals with T3, soybean-derived Bowman-Birk inhibitor (BBI), P01055.
T3 chain: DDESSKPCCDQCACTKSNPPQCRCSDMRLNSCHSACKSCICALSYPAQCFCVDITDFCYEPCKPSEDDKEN

Data set [5] has as its target human tissue kallikrein (Homo sapiens, UniProt P06870). Particulars: cited from earlier work.
Data set [6] has as its target human plasmin (Homo sapiens, UniProt P00747). Particulars: cited from earlier work.
For data set [7], the target named is human factor XIa (Homo sapiens, UniProt P03951). Particulars: cited from earlier work.
Sequence of human factor XIa (P03951 388-625 limits assumed): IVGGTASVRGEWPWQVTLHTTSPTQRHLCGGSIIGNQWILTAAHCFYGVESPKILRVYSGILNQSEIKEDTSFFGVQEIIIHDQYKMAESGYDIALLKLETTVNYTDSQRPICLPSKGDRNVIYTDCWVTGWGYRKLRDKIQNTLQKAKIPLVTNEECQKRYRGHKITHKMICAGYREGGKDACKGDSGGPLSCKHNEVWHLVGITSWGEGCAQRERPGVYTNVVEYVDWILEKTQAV
Sequence of human factor XIa (P03951 19-387 partner limits assumed): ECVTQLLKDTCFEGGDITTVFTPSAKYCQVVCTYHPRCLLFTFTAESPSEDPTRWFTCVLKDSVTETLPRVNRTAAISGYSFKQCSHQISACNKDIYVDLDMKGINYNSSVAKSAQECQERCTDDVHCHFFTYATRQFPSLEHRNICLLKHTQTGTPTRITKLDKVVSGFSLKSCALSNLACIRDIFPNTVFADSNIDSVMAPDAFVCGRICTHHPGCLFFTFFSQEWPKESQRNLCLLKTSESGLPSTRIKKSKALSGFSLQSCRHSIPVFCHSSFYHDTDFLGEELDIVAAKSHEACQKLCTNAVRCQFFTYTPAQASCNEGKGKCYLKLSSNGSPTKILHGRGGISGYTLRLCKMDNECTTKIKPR
Data set [8] deals with human plasma kallikrein (Homo sapiens, UniProt P03952). As to conditions: cited from earlier work.
Sequence of human plasma kallikrein (P03952 20-638): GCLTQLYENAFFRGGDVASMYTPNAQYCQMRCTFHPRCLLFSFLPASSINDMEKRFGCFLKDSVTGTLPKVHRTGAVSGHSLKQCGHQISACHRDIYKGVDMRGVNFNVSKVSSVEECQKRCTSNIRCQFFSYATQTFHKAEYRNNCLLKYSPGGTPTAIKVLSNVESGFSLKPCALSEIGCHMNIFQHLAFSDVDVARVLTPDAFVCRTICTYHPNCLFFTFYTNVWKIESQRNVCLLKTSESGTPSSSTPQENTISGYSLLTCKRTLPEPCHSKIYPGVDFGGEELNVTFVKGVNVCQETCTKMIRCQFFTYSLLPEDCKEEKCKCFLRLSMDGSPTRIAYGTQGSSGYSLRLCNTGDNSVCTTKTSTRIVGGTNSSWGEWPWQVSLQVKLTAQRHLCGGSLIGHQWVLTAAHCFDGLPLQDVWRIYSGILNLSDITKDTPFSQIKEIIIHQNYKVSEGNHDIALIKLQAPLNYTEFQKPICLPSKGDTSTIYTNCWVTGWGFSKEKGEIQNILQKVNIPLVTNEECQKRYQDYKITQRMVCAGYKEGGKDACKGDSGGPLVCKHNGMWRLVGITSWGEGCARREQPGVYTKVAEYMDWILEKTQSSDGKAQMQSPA
Data set [9] has as its target T4, matriptase (Homo sapiens, UniProt Q9Y5Y6).
T4 sequence (Q9Y5Y6 1-855): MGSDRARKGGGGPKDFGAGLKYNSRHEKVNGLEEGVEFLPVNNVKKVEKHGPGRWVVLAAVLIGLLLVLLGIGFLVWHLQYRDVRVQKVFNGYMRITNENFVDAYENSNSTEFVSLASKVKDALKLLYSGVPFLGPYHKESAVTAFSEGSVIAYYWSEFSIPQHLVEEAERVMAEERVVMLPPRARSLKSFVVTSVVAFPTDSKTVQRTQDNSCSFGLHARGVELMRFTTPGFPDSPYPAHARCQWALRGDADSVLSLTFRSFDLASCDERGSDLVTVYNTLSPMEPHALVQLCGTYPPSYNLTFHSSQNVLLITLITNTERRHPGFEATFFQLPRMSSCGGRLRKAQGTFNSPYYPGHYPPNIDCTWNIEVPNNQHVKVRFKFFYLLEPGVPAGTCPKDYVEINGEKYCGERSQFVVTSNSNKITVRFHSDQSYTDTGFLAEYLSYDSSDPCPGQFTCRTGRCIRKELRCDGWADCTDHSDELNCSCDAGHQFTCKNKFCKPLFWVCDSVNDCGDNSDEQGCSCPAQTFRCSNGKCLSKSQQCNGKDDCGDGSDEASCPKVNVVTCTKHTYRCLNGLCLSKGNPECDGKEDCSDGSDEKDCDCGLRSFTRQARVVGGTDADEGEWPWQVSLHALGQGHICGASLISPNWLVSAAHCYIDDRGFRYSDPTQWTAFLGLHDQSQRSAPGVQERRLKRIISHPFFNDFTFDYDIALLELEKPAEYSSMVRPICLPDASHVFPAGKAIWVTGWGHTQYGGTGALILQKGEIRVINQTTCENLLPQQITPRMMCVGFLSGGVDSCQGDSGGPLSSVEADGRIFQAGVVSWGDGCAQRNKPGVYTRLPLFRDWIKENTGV
The data set is described as follows: Fluorescent substrate assay and zymography with BBI. The data set is classed as biochemical. The procedure:
A concentrate of BBI, BBIC, can be administered in dosage sufficient to obtain a blood level of 0.001 to 1 mM concentration of BBI in the blood as a means of inhibiting tumor initiation in a susceptible to breast cancer. As indicated by presence of matriptase in nipple aspirate or in tissue from biopsy, including tissue from needle biopsy. […] BBI interacts directly with the serine protease active site on matriptase.

The mark [10] stands for this setting: after 30 and 60 min incubation at 37° C.

We go through four molecules from patent publication US7355015B1, “Matriptase, a serine protease and its applications” (Georgetown University School of Medicine, priority 1999, dated 2008).

Sequence of human tissue kallikrein (P06870 25-262): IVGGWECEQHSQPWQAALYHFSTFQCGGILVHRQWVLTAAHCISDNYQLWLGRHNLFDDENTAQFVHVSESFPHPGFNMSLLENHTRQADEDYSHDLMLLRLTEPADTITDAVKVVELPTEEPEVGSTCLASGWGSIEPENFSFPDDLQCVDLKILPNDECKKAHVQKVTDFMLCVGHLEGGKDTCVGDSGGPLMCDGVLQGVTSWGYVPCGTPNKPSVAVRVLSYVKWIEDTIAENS
Sequence of human plasmin (P00747 581-810 limits assumed): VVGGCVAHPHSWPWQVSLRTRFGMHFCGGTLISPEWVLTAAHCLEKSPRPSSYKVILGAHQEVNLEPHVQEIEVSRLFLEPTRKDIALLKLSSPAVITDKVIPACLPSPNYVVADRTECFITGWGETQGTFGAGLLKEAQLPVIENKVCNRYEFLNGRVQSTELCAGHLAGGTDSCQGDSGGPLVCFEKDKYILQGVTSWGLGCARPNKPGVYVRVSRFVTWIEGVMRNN
Sequence of human plasmin (P00747 97-580 partner limits assumed): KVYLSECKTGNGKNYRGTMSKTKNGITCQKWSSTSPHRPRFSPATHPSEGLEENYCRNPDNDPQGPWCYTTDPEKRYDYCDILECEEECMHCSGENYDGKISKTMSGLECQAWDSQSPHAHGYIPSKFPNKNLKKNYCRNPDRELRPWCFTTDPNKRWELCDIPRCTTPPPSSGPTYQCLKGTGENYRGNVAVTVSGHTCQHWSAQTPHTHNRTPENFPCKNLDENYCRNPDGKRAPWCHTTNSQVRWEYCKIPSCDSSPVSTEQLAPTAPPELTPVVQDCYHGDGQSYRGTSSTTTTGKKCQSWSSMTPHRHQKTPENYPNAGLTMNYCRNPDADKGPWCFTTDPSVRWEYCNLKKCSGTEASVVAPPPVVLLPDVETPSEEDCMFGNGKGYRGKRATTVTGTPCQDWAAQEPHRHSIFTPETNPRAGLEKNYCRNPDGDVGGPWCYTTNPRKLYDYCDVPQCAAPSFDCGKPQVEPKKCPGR

B1: HAI-1: Kunitz-type serine protease inhibitor, cognate inhibitor of matriptase, co-purified from human milk (protein, UniProt O43278 36-529, looked up)
Kunitz-type protease …: GPPPAPPGLPAGADCLNSFTAGVPGFVLDTNASVSNGATFLESPTVRRGWDCVRACCTTQNCNLALVELQPDRGEDAIAACFLINCLYEQNFVCKFAPREGFINYLTREVYRSYRQLRTQGFGGSGIPKAWAGIDLKVQPQEPLVLKDVENTDWRLLRGDTDVRVERKDPNQVELWGLKEGTYLFQLTVTSSDHPEDTANVTVTVLSTKQTEDYCLASNKVGRCRGSFPRWYYDPTEQICKSFVYGGCLGNKNNYLREEECILACRGVQGGPLRGSSGAQATFPQGPSMERRHPVCSGTCQPTQFRCSNGCCIDSFLECDDTPNCPDASDEAACEKYTSGFDELQRIHFPSDKGHCVDLPDTGLCKESIPRWYYNPFSEHCARFTYGGCYGNKNNFEEEQQCLESCRGISKKDVFGLRREIPIPSTGSVEMAVAVFLVICIVVVVAILGYCFFKNQRKDFHGHHHHPPPTPASSTVSTTEDTEHLVYNHTTRPL
For B1, the “activity by cleavage of fluorescent substrate” value in data set [1] (setting [10]) is “negligible activity”. In [1] (after 5 min incubation at 37° C.), the “cleavage rate for fluorescent substrate, remaining” value is recorded as 18%. In addition, in [2] (setting [10]), the “gelatinolytic activity by gelatin zymography” value is given as “negligible activity”. Moreover, the “gelatinolytic activity of complexed matriptase” value in [2] (after 5 min incubation at 37° C., versus uncomplexed matriptase) is on record as “much weaker activity”.

B2: two-chain (active) form of matriptase, milk-derived, released from its complexes (protein)
chain 1: SFVVTSVVAFPTDSKTVQRTQDNSCSFGLHARGVELMRFTTPGFPDSPYPAHARCQWALRGDADSVLSLTFRSFDLASCDERGSDLVTVYNTLSPMEPHALVQLCGTYPPSYNLTFHSSQNVLLITLITNTERRHPGFEATFFQLPRMSSCGGRLRKAQGTFNSPYYPGHYPPNIDCTWNIEVPNNQHVKVRFKFFYLLEPRRACGTCPKDYVEINGEKYCGERSQFVVTSNSNKITVRFHSDQSYTDTGFLAEYLSYDSSDPCPGQFTCRTGRCIRKELRCDGWADCTDHSDELNCSCDAGHQFTCKNKFCKPLFWVCDSVNDCGDNSDEQGCSCPAQTFRCSNGKCLSKSQQCNGKDDCGDGSDEASCPKVNVVTCTKHTYRCLNGLCLSKGNPECDGKEDCSDGSDEKDCDCGLRSFTRQAR
chain 2: VVGGTDADEGEWPWQVSLHALGQGHICGASLISPNWLVSAAHCYIDDRGFRYSDPTQWTAFLGLHDQSQRSAPGVQERRLKRIISHPFFNDFTFDYDIALLELEKPAEYSSMVRPICLPDASHVFPAGKAIWVTGWGHTQYGGTGALILQKGEIRVINQTTCENLLPQQITPRMMCVGFLSGGVDSCQGDSGGPLSSVEADGRIFQAGVVSWGDGCAQRNKPGVYTRLPLFRDWIKENTGV
Take B2: in data set [3], the “cleavage rate of the fluorescent substrate BOC-Gln-Ala-Arg-7-amido-4-methylcoumarin after 5 min at 37° C., pH 8.5” value is listed as “the cleavage rate for fluorescent substrate was significantly reduced, down to 18%”; the “gelatin zymography and cleavage of fluorescent substrate after 30 and 60 min at 37° C., pH 8.5” value was “negligible activity was observed by gelatin zymography (panel B) and by cleavage of fluorescent substrate”; the “rate of cleavage of a synthetic, fluorescent substrate” value is “the rate of cleavage of a synthetic, fluorescent substrate by matriptase was decreased following complex formation”. Further, the “matriptase activity by fluorescent substrate assay and zymography” value in data set [4] was “BBI can decrease matriptase activity in a dose-dependent manner”.

B3: placenta bikunin: second Kunitz-type inhibitor with two Kunitz domains, isolated from human placenta (protein, UniProt O43291 28-252, looked up)
Kunitz-type protease …: ADRERSIHDFCLVSKVVGRCRASMPRWWYNVTDGSCQLFVYGGCDGNSNNYLTKEECLKKCATVTENATGDLATSRNAADSSVPSAPRRQDSEDHSSDMFNYEEYCTANAVTGPCRASFPRWYFDVERNSCNNFIYGGCRGNKNSYRSEEACMLRCFRQQENPPLPLGSKVVVLAGLFVMVLILFLGASMVYLIRVARRNQERALRTVWSSGDDKEQLVKNTYVL
Turning to B3, the “inhibition of human tissue kallikrein” value in data set [5] is “strong inhibition”. In addition, the “inhibition of human plasmin” value in [6] was “strong inhibition”. Moreover, the “inhibition of human factor XIa” value in [7] is listed as “strong inhibition”. The “inhibition of human plasma kallikrein” value in data set [8] is recorded as “strong inhibition”.

B4: BBI: soybean-derived Bowman-Birk inhibitor of serine proteases (protein)
chain: DDESSKPCCDQCACTKSNPPQCRCSDMRLNSCHSACKSCICALSYPAQCFCVDITDFCYEPCKPSEDDKEN
Turning to B4, the “effect on matriptase activity” value in data set [9] is “decrease matriptase activity in a dose-dependent manner”.
